Literature values, collected in publication PMC10551901.

Experiments:
Rab29 (Homo sapiens) = Rab29 (Homo sapiens) (UniProt O14966)
Rab32 (Homo sapiens) = Rab32 (Homo sapiens) (UniProt Q13637)
Rab38 (Homo sapiens) = Rab38 (Homo sapiens) (UniProt P57729)

Measured: Kd

Chain of UniProt Q13637 (Q13637 2-225): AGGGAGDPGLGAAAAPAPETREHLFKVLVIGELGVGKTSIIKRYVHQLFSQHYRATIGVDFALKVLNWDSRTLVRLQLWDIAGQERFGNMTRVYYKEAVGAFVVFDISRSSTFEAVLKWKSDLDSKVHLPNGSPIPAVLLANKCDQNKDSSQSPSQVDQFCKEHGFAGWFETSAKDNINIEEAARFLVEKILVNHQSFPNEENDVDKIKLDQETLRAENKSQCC
Chain of UniProt O14966 (O14966 whole entry): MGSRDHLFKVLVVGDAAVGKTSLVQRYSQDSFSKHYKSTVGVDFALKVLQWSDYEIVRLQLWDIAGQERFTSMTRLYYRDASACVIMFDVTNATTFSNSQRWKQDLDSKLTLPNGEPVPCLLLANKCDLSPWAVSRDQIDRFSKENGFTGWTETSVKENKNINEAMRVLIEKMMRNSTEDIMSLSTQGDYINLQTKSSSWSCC
Chain of UniProt P57729 (P57729 whole entry): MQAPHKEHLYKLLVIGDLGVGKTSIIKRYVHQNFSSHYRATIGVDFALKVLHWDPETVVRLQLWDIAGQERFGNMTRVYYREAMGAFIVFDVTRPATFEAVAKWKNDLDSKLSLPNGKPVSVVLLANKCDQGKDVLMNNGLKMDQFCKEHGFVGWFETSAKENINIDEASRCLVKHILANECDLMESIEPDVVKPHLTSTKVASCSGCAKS

LRRK2 1-552 (from UniProt Q5S007)
2000 nM: all assays above
